The series has as its system Hydra Myc2 p15;Hydra Max p22 (Hydra magnipapillata?;Hydra magnipapillata?). Description: EMSA. Particulars: equimolar mixture, heterodimer; EMSA with 0.3 ng (25,000 cpm) 32P-labeled 18-mer dsDNA; binding buffer, salt, pH and temperature not given in the material.

As for E-box USF 18-mer, the Kd (as a rule, the equilibrium constant for the complex coming apart) amounted to 17.4 nM.

The values above are taken from article PMC4021362.
